Positions of bridges follow the written chain, without caps; N, C: chain ends. No end group written: not given here.
Biological target: T1, soluble EGFR (amino acids 1-621) (UniProt P00533 25-645)
T1 construct: range 1-621; Amine-coupled to a CM-5 chip on flowcell 3; also called soluble ErbB1; ErbB-1
Assay: BIAcore 3000, receptor amine-coupled to CM-5 chip, peptide injected
Procedure: Biosensor analyses were performed using a BIAcore™ 3000. A CM-5 (research grade) sensor chip was immobilized with soluble EGFR (amino acids 1-501), soluble EGFR (amino acids 1-621) and soluble ErbB2 (amino acids 1-509) on flowcells 2, 3 and 4, respectively. Immobilizations were performed using amine coupling chemistry in 10 mM Sodium Acetate at pH 4.2. Varying concentrations (1.25 μM, 2.5 μM, 5 μM and 10 μM) of peptides were injected (30 μl) over the sensor surfaces in HBS running buffer (10 mM HEPES, 3.4 mM EDTA, 0.15M NaCl, 0.005% Tween 20, pH 7.4) at a flow rate of 5 μl/min. The surfaces were then regenerated by injecting 10 μl of 10 mM NaOH at a flow rate of 20 μl/min. The resulting sensor curves were subtracted against the blank channel (Flowcell 1) to yield the specific response.

binding result: no binding (tested: up to 10 uM)
B1: Human NRG2 (1-32) (peptide)
peptide: GHARKCNETAKSYCVNGGVCYYIEGINQLSCK-OH
modifications: disulfide 14-20, 6-31; N-terminus assumed
SMILES: CC[C@H](C)[C@@H]1NC(=O)CNC(=O)[C@H](CCC(=O)O)NC(=O)[C@H]([C@@H](C)CC)NC(=O)[C@H](Cc2ccc(O)cc2)NC(=O)[C@H](Cc2ccc(O)cc2)NC(=O)[C@@H]2CSSC[C@H](NC(=O)[C@H](Cc3ccc(O)cc3)NC(=O)[C@H](CO)NC(=O)[C@H](CCCCN)NC(=O)[C@H](C)NC(=O)[C@H]([C@@H](C)O)NC(=O)[C@H](CCC(=O)O)NC(=O)[C@H](CC(N)=O)NC(=O)[C@@H](NC(=O)[C@H](CCCCN)NC(=O)[C@H](CCCNC(=N)N)NC(=O)[C@H](C)NC(=O)[C@H](Cc3c[nH]cn3)NC(=O)CN)CSSC[C@@H](C(=O)N[C@@H](CCCCN)C(=O)O)NC(=O)[C@H](CO)NC(=O)[C@H](CC(C)C)NC(=O)[C@H](CCC(N)=O)NC(=O)[C@H](CC(N)=O)NC1=O)C(=O)N[C@@H](C(C)C)C(=O)N[C@@H](CC(N)=O)C(=O)NCC(=O)NCC(=O)N[C@@H](C(C)C)C(=O)N2
notes: V8 digestion and mass spectrometry indicate C1-C4 and C2-C3 disulfide bridges; also called hNRG2 (1-32); hNRG2(1-32)
